Tests used:
Assay in all cases: ELISA of pooled CsCl fractions 9-15 of the purified particle
[1] = biological target: purified HBs antigen particle produced from an HBV sequence construct including the pre-S1 region with total deletion of pre-S2 and deletions upstream of the pre-S2 ATG and the S region with deletion of the S ATG (e.g., the construct of FIG. 6B) (Hepatitis B virus (subtype not stated for the construct); Hepatitis B virus (subtype not stated))
[2] = biological target: purified HBs antigen particle produced from an HBV sequence construct including the pre-S1 region with total deletion of pre-S2 and deletions upstream of the pre-S2 ATG and the S region with deletion of the S ATG and downstream the S ATG through the XBaI site (e.g. the construct of FIG. 1A) (Hepatitis B virus (subtype not stated for the construct); Hepatitis B virus (subtype not stated))
[3] = biological target: purified HBs antigen particle produced from an HBV sequence construct including the pre-S2 region with none of the pre-S1 region and deletions upstream of the S ATG and downstream of the S ATG through the XBaI site, and the S region with deletion of the S ATG (e.g. the construct of FIG. 2A) (Hepatitis B virus (subtype not stated for the construct); Hepatitis B virus (subtype not stated))
[4] = biological target: purified HBs antigen particle produced from an HBV sequence construct including the pre-S2 region with none of the pre-S1 region and deletions upstream of the S ATG and the S region with deletion of the S ATG (e.g., the construct of FIG. 7B) (Hepatitis B virus (subtype not stated for the construct); Hepatitis B virus (subtype not stated))
[5] = biological target: purified HBs antigen particles produced by construct including the entire pre-S1-pre-S2-S region under control of the LTR region of rous sarcoma virus, with additional cotransfection with S (FIG. 13) (Hepatitis B virus (subtype not stated))

Work on anti-pre-S1 monoclonal antibody MA 18/7 yielded an E492 [1] of 1.27, an E492 [2] of 0.839 and an E492 [3] of 0. The E492 [4] was 0 and the E492 [5] was 0.125.

From US6117653
